Test [1] addresses T1, His6 tagged soluble monomeric extracellular domain (ECD) of hSIRPα v1 (human, UniProt P78324 31-373).
T1 construct: extracellular domain; Made by transient transfection in Expi293 cells; used as monomeric analyte in Biacore; also called huSIRPαv1; huSIRPα-v1; not shown: His6 tag
The test is described as follows: SPR (Biacore T200), antibody captured by anti-human Fc on CM5 chip, monomeric antigen as analyte, 1:1 model. The method, then: (§1) The experiment is described in Example 8. Antibodies were captured to the CM5 chip surface on which goat anti-human polyclonal antibody (Fc specific) was immobilized. Monomeric huSIRPα-v1 and huSIRPα-v2 were used as analytes and were injected for a 2-minute association period followed by a 5-minute dissociation period. Each concentration was run in duplicates. For human SIRPα v1 the incremental concentrations used are 3.13, 6.25, 12.5, 25, 50, 100, […]; For human SIRPα v2 the incremental concentrations used are 0.78, 1.56, 3.13, 6.25, 12.5, or 25 nM. At the end of each analyte injection, the chip was either regenerated with 10 mM glycine-HC1, pH 1.5 (Panels A-D) for multi-cycle kinetics or not regenerated (Panels E-H) for single-cycle kinetics. Data were evaluated using the Biacore T200 Evaluation Software, version 3.2. Data was double referenced then fit with a 1:1 binding model. Panels A and E indicate the binding of anti-hSIRPα×anti-hCLDN18.2 bispecific antibody to hSIRPα v1, panels B and F indicate the binding of anti-hSIRPα #24 IgG antibody to hSIRPα v1, panels C and G indicate the binding of anti-hSIRPα×anti-hCLDN18.2 bispecific antibody to human SIRPα v2, panels D and H indicate the binding of anti-hSIRPα #24 IgG antibody to human SIRPα v2. The x-axis represents the time (seconds), the y-axis represents the RU (Response Units).
(§2) The His6 tagged soluble monomeric extracellular domain (ECD) of hSIRPα v1 and v2 were made by transient transfection in Expi293 cells. Kinetic analysis was performed using surface plasmon resonance (T200, Cytiva) to compare the binding of the anti-hSIRPα×anti-hCLDN18.2 bispecific antibody (SEQ ID NOs:70 and 74) and the parental anti-hSIRPα #24 IgG antibody (SEQ ID NOs:68 and 74) to antigens hSIRPα v1 and hSIRPα v2 (FIG. 15). Either antibody was captured to the CM5 chip surface (Cytiva) by the immobilized goat-anti-human Fc polyclonal antibody, monomeric antigen hSIRPα v1 or v2 was sequentially injected at 6 different concentrations: huSIRPα v1 at 3.13, 6.25, 12.5, 25, 50, 100 nM while hSIPRα v2 at […] with regeneration by 10 mM Glycine-HCl pH1.5 (FIG. 15, panels A-D) for multi-cycle kinetics or without regeneration (FIG. 15, panels E-H) for single-cycle kinetics.
(In general: Surface plasmon resonance follows binding to a sensor surface in real time, without labels.)

In test [2] the target is T2, His6 tagged soluble monomeric extracellular domain (ECD) of hSIRPα v2 (human).
T2 construct: extracellular domain; Made by transient transfection in Expi293 cells; used as monomeric analyte in Biacore; also called huSIRPαv2; huSIRPα-v2
The test is described as above. The method, then:
as §1, §2

Test [3] addresses T3, human Claudin 18 splice variant 2 (hCLDN18.2) (human, UniProt P56856-2 1-261).
T3 construct: whole, on cells; Tetra-spanning membrane protein; tested only on cells
T3 sequence (looked up): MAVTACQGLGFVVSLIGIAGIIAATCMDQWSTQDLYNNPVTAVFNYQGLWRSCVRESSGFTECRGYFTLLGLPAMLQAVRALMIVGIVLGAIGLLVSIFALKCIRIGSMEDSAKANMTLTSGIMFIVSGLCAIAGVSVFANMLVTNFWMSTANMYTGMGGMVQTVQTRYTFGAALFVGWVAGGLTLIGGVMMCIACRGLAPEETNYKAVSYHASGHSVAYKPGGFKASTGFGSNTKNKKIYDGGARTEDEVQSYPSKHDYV
The test is described as follows: flow cytometry on Expi293 cells stably expressing hCLDN18.2, APC anti-human IgG detection, gMFI. The method, then: Cells stably expressing hCLDN18.2 were spun down at 1500 rpm at room temperature for 5 minutes and resuspended in 1×PBS/1% BSA (washing buffer), antibodies at a 1:3 series dilution ranging from 100 nM to 24 pM were added, cells were incubated at RT with shaking for 1 hour. […] Three additional washes were performed to get rid of unbound antibodies, treated samples were run on an LSRII flow cytometer (BD Biosciences) and signal intensity was determined using the geometric MFI of APC using Flow Jo software (BD Biosciences). Curve fitting and EC₅₀ values were obtained using GraphPad Prism 6 software.
Background: Flow cytometry measures light scatter and fluorescence of single cells or particles in a stream.

For test [4], the target named is human SIRPα on monocyte-derived macrophages (human, UniProt P78324 31-504). The test is described as follows: cell-based or functional assay.
Test [5] concerns the target T3, human Claudin 18 splice variant 2 …. In words: cell-based or functional assay.

T1 sequence (P78324 31-373): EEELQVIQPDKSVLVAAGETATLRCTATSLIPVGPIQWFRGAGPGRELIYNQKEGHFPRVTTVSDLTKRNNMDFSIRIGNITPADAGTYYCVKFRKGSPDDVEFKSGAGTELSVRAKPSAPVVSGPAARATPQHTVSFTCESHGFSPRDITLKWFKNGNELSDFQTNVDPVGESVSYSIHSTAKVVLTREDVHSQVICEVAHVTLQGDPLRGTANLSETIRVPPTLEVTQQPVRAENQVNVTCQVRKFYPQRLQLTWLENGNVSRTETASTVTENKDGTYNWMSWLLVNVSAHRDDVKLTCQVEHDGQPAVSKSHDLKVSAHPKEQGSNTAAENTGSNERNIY
Chain of human SIRPα on monocyte-derived macrophages (P78324 31-504): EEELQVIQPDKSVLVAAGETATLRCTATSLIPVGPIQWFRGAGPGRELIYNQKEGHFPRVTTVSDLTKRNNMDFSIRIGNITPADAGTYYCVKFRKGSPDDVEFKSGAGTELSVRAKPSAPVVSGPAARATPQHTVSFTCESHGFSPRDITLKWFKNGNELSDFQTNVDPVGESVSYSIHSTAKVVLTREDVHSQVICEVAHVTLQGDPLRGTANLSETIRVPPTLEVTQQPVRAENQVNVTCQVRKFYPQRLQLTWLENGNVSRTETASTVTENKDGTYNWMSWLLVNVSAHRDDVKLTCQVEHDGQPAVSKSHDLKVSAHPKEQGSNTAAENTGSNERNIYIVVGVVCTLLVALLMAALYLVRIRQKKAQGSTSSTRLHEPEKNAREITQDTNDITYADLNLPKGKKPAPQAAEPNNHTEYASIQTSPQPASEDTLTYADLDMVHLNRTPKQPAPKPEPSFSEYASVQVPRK

B1: parental anti-hSIRPα #24 IgG antibody (antibody, V domains shown)
VH: EVQLVESGGGLVKPGGSLRLSCAASGFTFSSYVMSWVRQTPGKGLEWVATISSGGTYTYYPDSVKGRFTLSRDNAKNSLYLQMNSLRAEDTAVYYCASQLTGSEFDYWGQGTTVTVSS
VL: DIVLTQSPASLAVSLGERATISCRASESVDLYGTSFMHWYQQKPGQPPKLLIYRASNLESGVPDRFSGSGSRTDFTLTINPLQAEDVATYYCHQSSDELPWTFGGGTKVEIKR
notes: Bivalent parental IgG; also called anti-SIRPα mAb; anti-hSIRPα clone #24 IgG (WT)
The Kd is the constant that tells how readily two partners part at equilibrium. Read a high Kd as a looser complex. What is called koff is the first-order rate constant of dissociation. Broadly, the kon is the rate constant with which the complex forms. The low end stands for slow association, the high end for fast association. As to B1, in test [1], the Kd stood at 22.3 nM, the koff amounted to 0.0077 s⁻¹ and the kon was determined as 346000 M⁻¹ s⁻¹. For the same molecule, in test [2], the Kd is 0.908 nM, the koff turned out to be 0.00109 s⁻¹ and the kon is 1.21e+06 M⁻¹ s⁻¹.

B2: anti-hSIRPα×anti-hCLDN18.2 bispecific antibody (bispecific antibody, human IgG1, kappa)
heavy 1: EVQLVESGGGLVKPGGSLRLSCAASGFTFSSYVMSWVRQTPGKGLEWVATISSGGTYTYYPDSVKGRFTLSRDNAKNSLYLQMNSLRAEDTAVYYCASQLTGSEFDYWGQGTTVTVSSASTKGPSVFPLAPSSKSTSGGTAALGCLVKDYFPEPVTVSWNSGALTSGVHTFPAVLQSSGLYSLSSVVTVPSSSLGTQTYICNVNHKPSNTKVDKKVEPKSCDKTHTCPPCPAPELLGGPSVFLFPPKPKDTLMISRTPEVTCVVVDVSHEDPEVKFNWYVDGVEVHNAKTKPREEQYNSTYRVVSVLTVLHQDWLNGKEYKCKVSNKALPAPIEKTISKAKGQPREPQVYTLPPCREEMTKNQVKLTCLVKGFYPSDIAVEWESNGQPENPYKTTPPVLDKDGSFFLYSKLTVDKSRWQQGNVFSCSVMHEALHNHYTQKSLSLSPGK
light 1: DIVLTQSPASLAVSLGERATISCRASESVDLYGTSFMHWYQQKPGQPPKLLIYRASNLESGVPDRFSGSGSRTDFTLTINPLQAEDVATYYCHQSSDELPWTFGGGTKVEIKRTVAAPSVFIFPPSDEQLKSGTASVVCLLNNFYPREAKVQWKVDNALQSGNSQESVTEQDSKDSTYSLSSTLTLSKADYEKHKVYACEVTHQGLSSPVTKSFNRGEC
heavy 2: QVQLVQSGAEVKKPGSSVKVSCKASGYTLTGYWIEWLRQRPGQGLEWMGEILLGSGSIKYNVKFKDRVTITADESTSTAYMELSSLRSEDTAVYYCARKGLRGNSFDYWGQGTLVTVSSASTKGPSVFPLAPSSKSTSGGTAALGCLVDDYFPEPVTVSWNSGALTSGVHTCPACLQSSGLYSLSSVVTVPSSSLGTQTYICNVNHKPSNTKVDKKVEPKSGDKTHTCPPCPAPELLGGPSVFLFPPKPKDTLMISRTPEVTCVVVDVSHEDPEVKFNWYVDGVEVHNAKTKPREEQYNSTYRVVSVLTVLHQDWLNGKEYKCKVSNKALPAPIEKTISKAKGQPREPQVCTLPPSREEMTKNQVDLTCLVDGFYPSDIAVEWESNGQPENDYGTTPPVLDDDGSFFLYSKLTVDKSRWQQGNVFSCSVMHEALHNHYTQKSLSLSPGK
light 2: DIVMTQSPSSLTVSLGEKATISCKSSQSLLNAGNQKSYLTWYQQKPGQPPKRLIYWASTRESGVPDRFSGSGSGTDFTLTISSLQAEDLAVYYCQNDYYYPFTFGQGTKVEIKRTVAAPSVFIFPPSDEQLKSGTAKVVCLLNNFYPREAKVQWKVDNALQSGNSCECVTEQDSKDSTYSLSSTLTLSKADYEKHKVYACEVTHQGLSSPVTKSFNRGES
notes: Four-chain heterodimeric IgG, one Fab arm for each target; made in ExpiCHO cells and purified on protein A; also called anti-hCLDN18.2×hSIRPα bispecific antibody; anti-hSIRPα×hCLDN18.2
Broadly, the EC50 is the concentration needed to bring the measured effect to its halfway point. A high value points to a less potent agent. B2 came in with an EC50 in test [3] of 16.9 nM. The “EC50, ADCP killing of PaTu 8988s cells by monocyte-derived macrophages” value in test [4] and in test [5] was 0.172 nM in each case. The results for the Kd in test [1] and in test [2] were 23.2 nM and 0.88 nM, respectively. The koff in test [1] turned out to be 0.00732 s⁻¹; in test [2], 0.00104 s⁻¹. For the same molecule, the kon in test [1] amounted to 329000 M⁻¹ s⁻¹; in test [2], 1.18e+06 M⁻¹ s⁻¹.

B3: parental anti-hCLDN18.2 59F9E1 IgG1 antibody (antibody, V domains shown)
VH: QVQLVQSGAEVKKPGSSVKVSCKASGYTLTGYWIEWLRQRPGQGLEWMGEILLGSGSIKYNVKFKDRVTITADESTSTAYMELSSLRSEDTAVYYCARKGLRGNSFDYWGQGTLVTVSS
VL: DIVMTQSPSSLTVSLGEKATISCKSSQSLLNSGNQKSYLTWYQQKPGQPPKRLIYWASTRESGVPDRFSGSGSGTDFTLTISSLQAEDLAVYYCQNDYYYPFTFGQGTKVEIKR
notes: Humanized IgG1 with two Fab arms; also called aCLDN18.2; anti-hCLDN18.2 clone 59F9E1 IgG1 (WT)
Take B3: in test [3], the EC50 was found to be 4.52 nM.
